Experiments:
[1] = biological target: recombinant human TLR2 (human, UniProt O60603); experiment: flow cytometry of receptor-conjugated beads
[2] = biological target: T1, recombinant human CD14 (human, UniProt P08571 20-345); experiment: flow cytometry of receptor-conjugated beads
T1 sequence: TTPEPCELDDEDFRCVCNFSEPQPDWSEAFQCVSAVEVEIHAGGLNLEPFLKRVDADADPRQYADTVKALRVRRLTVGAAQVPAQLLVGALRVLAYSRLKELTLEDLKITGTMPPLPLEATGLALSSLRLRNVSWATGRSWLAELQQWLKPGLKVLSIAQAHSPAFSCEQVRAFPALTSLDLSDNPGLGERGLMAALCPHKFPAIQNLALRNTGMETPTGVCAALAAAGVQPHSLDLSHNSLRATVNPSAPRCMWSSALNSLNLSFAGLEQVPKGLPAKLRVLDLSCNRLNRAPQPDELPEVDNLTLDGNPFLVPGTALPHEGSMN

Sequence of recombinant human TLR2 (O60603 21-588): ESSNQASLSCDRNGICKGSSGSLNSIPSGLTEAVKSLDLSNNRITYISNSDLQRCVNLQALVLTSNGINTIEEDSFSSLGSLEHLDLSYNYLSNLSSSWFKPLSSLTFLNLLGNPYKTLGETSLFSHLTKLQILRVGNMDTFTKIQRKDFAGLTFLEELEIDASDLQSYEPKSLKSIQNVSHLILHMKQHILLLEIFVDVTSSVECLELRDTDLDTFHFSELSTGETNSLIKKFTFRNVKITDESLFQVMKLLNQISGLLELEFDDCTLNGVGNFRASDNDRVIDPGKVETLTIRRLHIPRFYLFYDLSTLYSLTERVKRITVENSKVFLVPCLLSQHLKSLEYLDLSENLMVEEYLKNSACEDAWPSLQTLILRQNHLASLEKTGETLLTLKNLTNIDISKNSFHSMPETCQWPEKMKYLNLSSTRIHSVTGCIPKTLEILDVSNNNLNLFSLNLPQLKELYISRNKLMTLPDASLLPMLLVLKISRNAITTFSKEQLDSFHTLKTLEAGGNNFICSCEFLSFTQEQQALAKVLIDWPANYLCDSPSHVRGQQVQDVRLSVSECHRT

Row | Binder | binding result [1] | binding result [2]
1 | RAIGGGLSSVGGGSSTIK [KAMP-18C] | binds | binds
2 | GGLSSVGGGS [KAMP-10] | binds | binds

— article doi:10.1101/2021.01.18.427180 (bioRxiv, 2021)
